According to paper PMC9001700 (Communications Biology, 2022):

T1: synthetic stem helix peptide spanning residues 1149–1167 (SARS-CoV-2, UniProt P0DTC2)
T1 chain: KEELDKYFKNHTSPDVDLG

B1: CV3-25 IgG (antibody, V domains shown)
VH: QVQLVESGAEVKKPGESLKISCKGSGYTFTRYWIGWVRQMPGKGLEWMGIIYPGDSDTRYSPSFQGHVTISADKSISTAYLQWNSLKASDTAMYYCARLPQYCSNGVCQRWFDPWGQGTLVTVSS
VL: EIVLTQSPSSVSASVGDRVTITCRASQGISSWLAWYQQKPGKAPKLLIYAASSLQSGVPSRFSGSGSGTDFTLTISSLQPEDFATYYCQQGNSFPYTFGQGTNLEIK
notes: also called CV3-25 mAb; source: 293 cells, purified (protein A resin); copies: 2 + 2
B2: CV3-25 Fab (Fab, V domains shown)
VH: QVQLVESGAEVKKPGESLKISCKGSGYTFTRYWIGWVRQMPGKGLEWMGIIYPGDSDTRYSPSFQGHVTISADKSISTAYLQWNSLKASDTAMYYCARLPQYCSNGVCQRWFDPWGQGTLVTVSS
VL: EIVLTQSPSSVSASVGDRVTITCRASQGISSWLAWYQQKPGKAPKLLIYAASSLQSGVPSRFSGSGSGTDFTLTISSLQPEDFATYYCQQGNSFPYTFGQGTNLEIK
notes: also called monovalent Fab

Columns and labels:
Details in all cases: both partners purified
[1] = target: T2, HCoV-OC43 S-2P-T4f-3C-His8-Strep2x2 (stabilized spike ectodomain) (HCoV-OC43, strain , UniProt P36334, stabilised); experiment: BLI
T2 construct: also called HCoV-OC43-S2P.his; stabilized spike ectodomain from HCoV-OC43; source: 293E cells, purified (Ni-NTA, SEC on superose 6)

[2] = target: T3, HCoV-HKU1 S-2P-T4f-3C-His8-Strep2x2 (stabilized spike ectodomain) (HCoV-HKU1, isolate  (isolate …, UniProt Q0ZME7, stabilised)); experiment: BLI
T3 construct: also called HCoV-HKU1-S2P.his; stabilized spike ectodomain from HCoV-HKU1; source: 293E cells, purified (Ni-NTA, SEC on superose 6)

[3] = target: T1, synthetic stem helix peptide spanning …; experiment: crystal structure

| Binder | binding result [1] | binding result [2] | binding result [3] |
| --- | --- | --- | --- |
| B1 | binds | binds |  |
| B2 |  |  | binds |
